This note sets out measurements from publication PMC6356969, “Cytosolic Isocitrate Dehydrogenase from Arabidopsis thaliana Is Regulated by Glutathionylation” (Antioxidants, 2019).

Series [1] concerns the target T1, cICDH (cytosolic NADP-ICDH, At1g65930) (Arabidopsis thaliana, UniProt Q9SRZ6, C363S).
T1 construct: ~90 kDa non-covalent dimer
The experiment in a line: residual activity after preincubation, NADPH at […] nm. Format: biochemical. The settings on record: 1 mM GSNO preincubation, 25 °C; covalent.

Series [2] concerns the target T2, cICDH (cytosolic NADP-ICDH, At1g65930) (Arabidopsis thaliana, UniProt Q9SRZ6).
T2 construct: ~90 kDa non-covalent dimer
Put plainly: residual activity after preincubation; LC-MS/MS of glutathionylated peptide; biotin switch. The conditions noted are these: 15 min at 25 °C before assay; covalent, S-glutathionylation of Cys363 and S-nitrosylation. Format: biochemical.

Series [3] deals with the molecule itself. Put plainly: SEC; Superose 12 column, ~10 ug His-ICDH, 50 mM Tris pH 7.5, 5 mM MgCl2, 150 mM NaCl; standards aldolase 158 kDa, conalbumin 75 kDa, ovalbumin 43 kDa; eluted at ~90 kDa against a 48.3 kDa monomer.
Substrate in series [4]: NC(=O)c1ccc[n+]([C@@H]2O[C@H](COP(=O)(O)OP(=O)(O)OC[C@H]3O[C@@H](n4cnc5c(N)ncnc54)[C@H](OP(=O)(O)O)[C@@H]3O)[C@@H](O)[C@H]2O)c1
The experiment in a line: purified protein. The conditions noted are these: NADP+ varied 0-1 mM, DL-isocitric acid as co-substrate, 5 mM MgCl2, 100 mM potassium phosphate pH 7.5, 25 °C. Format: biochemical, Arabidopsis thaliana.

Substrate in series [5]: O=C(O)CC(C(=O)O)C(O)C(=O)O
The experiment in a line: purified protein. Format: biochemical, Arabidopsis thaliana. The conditions noted are these: 250 µM NADP+, 5 mM MgCl2, 100 mM potassium phosphate pH 7.5, 25 °C, DL-isocitric acid varied 0-5 mM.

Where [6] appears, read: Table 1 labels the mutant C297S, text and methods say C363S.

Substitutions are numbered along the chain they refer to. Numbers in names are those of the source.

T1 sequence (Q9SRZ6 whole entry C363S): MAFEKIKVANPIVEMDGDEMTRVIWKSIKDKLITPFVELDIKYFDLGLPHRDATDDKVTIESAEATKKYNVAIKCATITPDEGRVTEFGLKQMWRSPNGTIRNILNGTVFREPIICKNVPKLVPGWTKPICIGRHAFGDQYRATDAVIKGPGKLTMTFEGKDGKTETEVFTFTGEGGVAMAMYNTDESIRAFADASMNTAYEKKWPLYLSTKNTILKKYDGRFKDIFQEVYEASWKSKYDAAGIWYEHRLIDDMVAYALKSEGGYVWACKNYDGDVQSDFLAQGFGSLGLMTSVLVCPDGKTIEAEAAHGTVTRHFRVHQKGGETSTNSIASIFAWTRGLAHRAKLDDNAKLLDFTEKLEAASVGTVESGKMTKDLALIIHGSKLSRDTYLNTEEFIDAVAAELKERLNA

Consider `N[C@@H](CCC(=O)N[C@@H](CSN=O)C(=O)NCC(=O)O)C(=O)O` [GSNO], for which the “activity after 1 mM GSNO” value in series [1] is listed as “cICDH C363S was found to be less affected by GSNO treatment than the wild-type enzyme”. For the same molecule, the “activity at increasing GSNO” value in series [2] was “both increasing concentrations of GSNO and GSSG progressively inhibited the cICDH activity”.

B1: cytosolic NADP-dependent isocitrate dehydrogenase (cICDH), recombinant His-tagged (enzyme, Arabidopsis thaliana, UniProt Q9SRZ6 1-410, looked up)
chain: MAFEKIKVANPIVEMDGDEMTRVIWKSIKDKLITPFVELDIKYFDLGLPHRDATDDKVTIESAEATKKYNVAIKCATITPDEGRVTEFGLKQMWRSPNGTIRNILNGTVFREPIICKNVPKLVPGWTKPICIGRHAFGDQYRATDAVIKGPGKLTMTFEGKDGKTETEVFTFTGEGGVAMAMYNTDESIRAFADASMNTAYEKKWPLYLSTKNTILKKYDGRFKDIFQEVYEASWKSKYDAAGIWYEHRLIDDMVAYALKSEGGYVWACKNYDGDVQSDFLAQGFGSLGLMTSVLVCPDGKTIEAEAAHGTVTRHFRVHQKGGETSTNSIASIFAWTRGLAHRAKLDDNAKLLDFTEKLEAACVGTVESGKMTKDLALIIHGSKLSRDTYLNTEEFIDAVAAELKERLNA
notes: cytosolic NADP-dependent isocitrate dehydrogenase, Arabidopsis thaliana, At1g65930; predicted mass 48.3 kDa including the N-terminal His-tag; also called His-ICDH; His-cICDH; source: E. coli BL21, purified (Ni2+-Sepharose); not shown: His-tag, N-terminal, kept
As for B1, the “stoichiometry N” value in series [3] worked out at 2. Moreover, in “purified protein [4]”, the Km is 28 µM and the kcat was found to be 5.81 s⁻¹. In “purified protein [5]”, the Michaelis constant (Km) was 99 µM, the kcat was found to be 4.93 s⁻¹ and the kcat/Km was found to be 49700 M⁻¹ s⁻¹.

B2: cICDH (cytosolic NADP-ICDH, At1g65930) (Arabidopsis thaliana; C363S) (protein)
chain: B1 chain with C363S
notes: ~90 kDa non-covalent dimer
Consider B2, for which, in “purified protein [5]” (setting [6]), the Km is 95 µM and the turnover number (kcat) came to 4.31 s⁻¹.

As a reminder, the stoichiometry N is the number of molecules, sites or subunits per partner or assembly. For orientation: Km means the substrate concentration at which the rate is half of its maximum. For orientation: kcat means the maximal rate divided by the concentration of active sites. The term kcat/Km denotes the second-order rate constant that governs catalysis at low substrate concentration.
